Experimental data taken from paper doi:10.1101/2025.02.12.637862.

Target: biotinylated recombinant SARS-CoV-2 RBD (SARS-CoV-2) (UniProt P0DTC2)
Experiment: BLI

Substance: soluble N. vison ACE2 (domain or fragment)
- Kd: 1500 nM
